Patent US20250186614A1, “COMPACT DRUG RESPONSIVE DOMAINS FOR REGULATION OF FUNCTION/ABUNDANCE AND DELIVERY OF POLYPEPTIDE PAYLOADS” (OBSIDIAN THERAPEUTICS, INC., priority 2022, published 2025)
Changes are numbered by the printed parent chain. In names and notes the source's numbering stands. Like-named read-outs stand apart in the source and are kept apart here.

Key:
[1] = Example 4: dose response of FKBP constructs 160-255, Ec50, Ec90 and fold change (raw and normalized to mCherry); format: cell-based; conditions: for FC (fold change): fold change during initial analysis
Experimental: Additional experiments were performed for constructs FKBP-160-292.

Jurkat cells = assay: Tacrolimus dose response of FKBP13-AcGFP-mCherry constructs stably transduced into Jurkat cells, GFP MFI by flow cytometry; format: cell-based; design: Basal: unit not given here; conditions: for Fold Change: Jurkat cells, Table 13
Summary of the method: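 GFP geometric MFI was read by flow cytometry in mCherry+ cells and curve-fitted against tacrolimus dose. Cells were Jurkat E6-1, lentivirus-transduced with FKBP13-AcGFP-mCherry fusion constructs until 10-25% mCherry-positive on day 5 post-transduction.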

[2] = FKBP constructs 160-255, not normalized, read-out: EC90
[3] = normalized to mCherry, read-out: EC90 (Norm)

B1: FKBP-162 (protein)
chain: HCPIKSRKGDVLHAHYTGKLEDGTEFDSSLPRNQPFVFSLGTGERIKGWDQGLLGMCEGEKRKLVIPSELGYGERGWPPKIPGGATLVFEVELLKIE
modifications: C-terminal R deleted; Description of sequence: Construct Name: FKBP-162; Mutation(s): Q72R Q84E A117W DRD M54A del c-term R V85R
EC90 [1, 2]: 1800 nM | FC (fold change) [1]: 46.6 | EC90 [1, 3]: 1870 nM

B2: FKBP-203: FKBP13 DRD-AcGFP construct of Table 10 (protein)
chain: HCPIKSRKGDVLHAHYTGKLEDGTEFDSSLPRNQLFVFSLGTGERIKGWDQGLLGMCEGEKRKLVIPSELGYGERGWPPKIPGGATLVFEVELLKIER
modifications: Description of sequence: Construct Name: FKBP-203; Mutation(s): Q72R Q84E A117W V85R DRD M54A P75L
EC90 [1, 2]: 657 nM | FC (fold change) [1]: 66.0 | EC90 [1, 3]: 747 nM

B3: FKBP-283: FKBP13 DRD-AcGFP construct of Table 10 (protein)
chain: B2 chain with A14M, Q34W, L35P, K95Y
modifications: Description of sequence: Construct Name: FKBP-283; Mutation(s): Q72R Q74W Q84E A117W V85R K135Y
FC (Jurkat cells; tacrolimus, FIG. 36): 39.79 | Peak (Jurkat cells; tacrolimus, FIG. 36): 1328 | Fold Change (Jurkat cells; tacrolimus): 39.79

B4: FKBP-207 (protein)
chain: B2 chain with L35P, I96V
modifications: Description of sequence: Construct Name: FKBP-207; Mutation(s): Q72R Q84E A117W V85R DRD M54A I136V
EC90 [1, 2]: 311 nM | FC (fold change) [1]: 35.4 | EC90 [1, 3]: 302 nM

B5: FKBP-286: FKBP13 DRD-AcGFP construct of Table 10 (protein)
chain: B2 chain with A14M, Q34W, L35P, K80I, K95Y
modifications: Description of sequence: Construct Name: FKBP-286; Mutation(s): Q72R Q74W Q84E A117W V85R K135Y K120I
FC (Jurkat cells; tacrolimus, FIG. 37): 25.96 | Peak (Jurkat cells; tacrolimus, FIG. 37): 1089 | Fold Change (Jurkat cells; tacrolimus): 25.96

B6: FKBP-290: FKBP13 DRD-AcGFP construct of Table 10 (protein)
chain: B2 chain with A14M, L35P, K80I, E90F
modifications: Description of sequence: Construct Name: FKBP-290; Mutation(s): Q72R Q84E A117W V85R K120I E130F
FC (Jurkat cells; tacrolimus, FIG. 38): 92.89 | Peak (Jurkat cells; tacrolimus, FIG. 38): 3191 | Fold Change (Jurkat cells; tacrolimus): 92.89

B7: FKBP-256: FKBP13 DRD-AcGFP construct of Table 10 (protein)
chain: B2 chain with A14M, L35P, E97M
modifications: Description of sequence: Construct Name: FKBP-256; Mutation(s): Q72R Q84E A117W V85R DRD E137M
Basal (Jurkat cells; FIG. 41): 111 | FC (Jurkat cells; FIG. 41): 65 | Peak (Jurkat cells; FIG. 41): 6851 | Basal (Jurkat cells; FIG. 43, BR1 (Biorep 1)): 110 | FC (Jurkat cells; FIG. 43, BR1 (Biorep 1)): 71.46 | At 10 uM (Jurkat cells; FIG. 43, BR1 (Biorep 1)): 7861 | Basal (Jurkat cells; FIG. 43, BR2 (Biorep 2)): 125 | FC (Jurkat cells; FIG. 43, BR2 (Biorep 2)): 59.04 | At 10 uM (Jurkat cells; FIG. 43, BR2 (Biorep 2)): 7380 | FC (Jurkat cells; tacrolimus, FIGS. 29 and 30): 78 | Fold Change (Jurkat cells; tacrolimus): 78

B8: FKBP-206 (protein)
chain: B2 chain with L35P, K95Y
modifications: Description of sequence: Construct Name: FKBP-206; Mutation(s): Q72R Q84E A117W V85R DRD M54A K135Y
EC90 [1, 2]: 573 nM | FC (fold change) [1]: 50.1 | EC90 [1, 3]: 550 nM

B9: FKBP-204 (protein)
chain: B2 chain with L35P, D50A
modifications: Description of sequence: Construct Name: FKBP-204; Mutation(s): Q72R Q84E A117W V85R DRD M54A D90A
EC90 [1, 2]: 15200 nM | FC (fold change) [1]: 37.9 | EC90 [1, 3]: 15500 nM

B10: FKBP-284: FKBP13 DRD-AcGFP construct of Table 10 (protein)
chain: B2 chain with A14M, Q34W, L35P, E90F
modifications: Description of sequence: Construct Name: FKBP-284; Mutation(s): Q72R Q74W Q84E A117W V85R E130F
FC (Jurkat cells; tacrolimus, FIG. 37): 58.23 | Peak (Jurkat cells; tacrolimus, FIG. 37): 2441 | Fold Change (Jurkat cells; tacrolimus): 58.23

B11: FKBP-205 (protein)
chain: B2 chain with L35P, L64V
modifications: Description of sequence: Construct Name: FKBP-205; Mutation(s): Q72R Q84E A117W V85R DRD M54A L104V
EC90 [1, 2]: 183 nM | FC (fold change) [1]: 30.1 | EC90 [1, 3]: 184 nM

B12: FKBP-285: FKBP13 DRD-AcGFP construct of Table 10 (protein)
chain: B2 chain with A14M, Q34W, L35P, K80I
modifications: Description of sequence: Construct Name: FKBP-285; Mutation(s): Q72R Q74W Q84E A117W V85R K120I
FC (Jurkat cells; tacrolimus, FIG. 37): 36.71 | Peak (Jurkat cells; tacrolimus, FIG. 37): 2161 | Fold Change (Jurkat cells; tacrolimus): 36.71

B13: FKBP-259: FKBP13 DRD-AcGFP construct of Table 10 (protein)
chain: B2 chain with A14M, L35P, E90K
modifications: Description of sequence: Construct Name: FKBP-259; Mutation(s): Q72R Q84E A117W V85R DRD E130K
Basal (Jurkat cells; FIG. 40): 72.3 | FC (Jurkat cells; FIG. 40): 90 | Peak (Jurkat cells; FIG. 40): 6232 | Basal (Jurkat cells; FIG. 47, BR1 (Biorep 1)): 70.7 | FC (Jurkat cells; FIG. 47, BR1 (Biorep 1)): 95.97 | At 10 uM (Jurkat cells; FIG. 47, BR1 (Biorep 1)): 6785 | Basal (Jurkat cells; FIG. 47, BR2 (Biorep 2)): 77.3 | FC (Jurkat cells; FIG. 47, BR2 (Biorep 2)): 84.76 | At 10 uM (Jurkat cells; FIG. 47, BR2 (Biorep 2)): 6552 | FC (Jurkat cells; tacrolimus, FIGS. 29 and 30): 103 | Fold Change (Jurkat cells; tacrolimus): 103

B14: FKBP-287: FKBP13 DRD-AcGFP construct of Table 10 (protein)
chain: B2 chain with A14M, Q34W, L35P, K80I, E90F
modifications: Description of sequence: Construct Name: FKBP-287; Mutation(s): Q72R Q74W Q84E A117W V85R E130F K120I
FC (Jurkat cells; tacrolimus, FIG. 37): 47.09 | Peak (Jurkat cells; tacrolimus, FIG. 37): 1747 | Fold Change (Jurkat cells; tacrolimus): 47.09

B15: FKBP-292: FKBP13 DRD-AcGFP construct of Table 10 (protein)
chain: B2 chain with A14M, L35P, K95Q
modifications: Description of sequence: Construct Name: FKBP-292; Mutation(s): Q72R Q84E A117W V85R K135Q
FC (Jurkat cells; tacrolimus, FIG. 38): 50.68 | Peak (Jurkat cells; tacrolimus, FIG. 38): 3797 | Fold Change (Jurkat cells; tacrolimus): 50.68

B16: FKBP-288: FKBP13 DRD-AcGFP construct of Table 10 (protein)
chain: B2 chain with A14M, L35P, K80I
modifications: Description of sequence: Construct Name: FKBP-288; Mutation(s): Q72R Q84E A117W V85R K120I
FC (Jurkat cells; tacrolimus, FIG. 38): 30.10 | Peak (Jurkat cells; tacrolimus, FIG. 38): 3718 | Fold Change (Jurkat cells; tacrolimus): 30.1

B17: FKBP-289: FKBP13 DRD-AcGFP construct of Table 10 (protein)
chain: B2 chain with A14M, L35P, K80I, K95Y
modifications: Description of sequence: Construct Name: FKBP-289; Mutation(s): Q72R Q84E A117W V85R K120I K135Y
FC (Jurkat cells; tacrolimus, FIG. 38): 73.38 | Peak (Jurkat cells; tacrolimus, FIG. 38): 2659 | Fold Change (Jurkat cells; tacrolimus): 73.38

B18: FKBP-291: FKBP13 DRD-AcGFP construct of Table 10 (protein)
chain: B2 chain with A14M, L35P, E90N
modifications: Description of sequence: Construct Name: FKBP-291; Mutation(s): Q72R Q84E A117W V85R E130N
FC (Jurkat cells; tacrolimus, FIG. 38): 53.37 | Peak (Jurkat cells; tacrolimus, FIG. 38): 3859 | Fold Change (Jurkat cells; tacrolimus): 53.37

B19: FKBP-282: FKBP13 DRD-AcGFP construct of Table 10 (protein)
chain: B2 chain with A14M, Q34W, L35P
modifications: Description of sequence: Construct Name: FKBP-282; Mutation(s): Q72R Q74W Q84E A117W V85R
FC (Jurkat cells; tacrolimus, FIG. 36): 39.54 | Peak (Jurkat cells; tacrolimus, FIG. 36): 2473 | Fold Change (Jurkat cells; tacrolimus): 39.54

B20: FKBP-257: FKBP13 DRD-AcGFP construct of Table 10 (protein)
chain: B2 chain with A14M, L35P, E97F
modifications: Description of sequence: Construct Name: FKBP-257; Mutation(s): Q72R Q84E A117W V85R DRD E137F
Basal (Jurkat cells; FIG. 41): 98 | FC (Jurkat cells; FIG. 41): 59 | Peak (Jurkat cells; FIG. 41): 5501 | Basal (Jurkat cells; FIG. 43, BR1 (Biorep 1)): 107 | FC (Jurkat cells; FIG. 43, BR1 (Biorep 1)): 59.79 | At 10 uM (Jurkat cells; FIG. 43, BR1 (Biorep 1)): 6397 | Basal (Jurkat cells; FIG. 43, BR2 (Biorep 2)): 118 | FC (Jurkat cells; FIG. 43, BR2 (Biorep 2)): 50.39 | At 10 uM (Jurkat cells; FIG. 43, BR2 (Biorep 2)): 5946 | FC (Jurkat cells; tacrolimus, FIGS. 29 and 30): 65 | Fold Change (Jurkat cells; tacrolimus): 65
